# Assay results: US20100092974A1, “METHODS FOR SCREENING FOR MODULATORS OF CCRL2” (The Board of Trustees of the Leland Stanford Junior …, priority 2008, published 2010)
# Key:
# mCMKLR1 = target: T1, mCMKLR1 (Mus musculus, UniProt P97468); experiment: immunofluorescence-based chemerin-binding assay, mCMKLR1-HA L1.2; details: 10 nM His8-tagged chemerin, anti-His6 PE
# T1 construct: expressed in transfected cells; host or cells: L1.2 mouse pre-B lymphoma cells
# T1 sequence (P97468 1-371): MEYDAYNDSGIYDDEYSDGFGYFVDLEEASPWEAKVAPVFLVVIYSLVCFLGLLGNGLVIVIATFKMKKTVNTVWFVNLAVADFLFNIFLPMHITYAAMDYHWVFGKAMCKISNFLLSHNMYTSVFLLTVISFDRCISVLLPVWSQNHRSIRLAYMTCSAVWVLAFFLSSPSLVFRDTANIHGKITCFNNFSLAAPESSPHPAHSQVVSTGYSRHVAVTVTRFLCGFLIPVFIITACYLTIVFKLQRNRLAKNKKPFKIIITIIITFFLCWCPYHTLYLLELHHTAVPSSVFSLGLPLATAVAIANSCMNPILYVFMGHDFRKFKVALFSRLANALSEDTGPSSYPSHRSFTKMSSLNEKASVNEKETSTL
# mCCRL2 = target: T2, mCCRL2 (Mus musculus, UniProt O35457); experiment: intracellular calcium mobilization, CCRL2/HEK293 transfectants; assay type: cell-based; details: HEK293 background, alone or in combination
# T2 construct: The coding regions of mCCRL2, huCCRL2, mCRTH2, and huCCR10 were amplified from genomic DNA; expressed in transfected cells
# T2 sequence (O35457 1-360): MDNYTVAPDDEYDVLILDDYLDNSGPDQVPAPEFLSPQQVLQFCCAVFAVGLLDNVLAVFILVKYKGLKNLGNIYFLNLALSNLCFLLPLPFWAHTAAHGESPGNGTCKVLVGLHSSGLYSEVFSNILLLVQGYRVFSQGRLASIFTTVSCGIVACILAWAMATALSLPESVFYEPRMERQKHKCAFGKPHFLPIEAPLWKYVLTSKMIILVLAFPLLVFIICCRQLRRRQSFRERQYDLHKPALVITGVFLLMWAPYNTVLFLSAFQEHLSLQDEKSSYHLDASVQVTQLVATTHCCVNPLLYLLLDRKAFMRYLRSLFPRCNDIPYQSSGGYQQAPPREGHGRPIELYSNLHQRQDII
# Procedure: (§1) Chemoattractant-stimulated Ca^2+-mobilization was performed following Alliance for Cell Signaling protocol ID PP00000210. Cells (3×10^6/mL) were loaded with 4 μM Fluo4-AM and 0.16% Pluronic acid F-127 (Molecular Probes) in modified Iscove's medium (Iscove's medium with 1% heat inactivated bovine calf serum and 2 mM L-glutamine, Invitrogen) for 30 minutes at 37° C. The samples were mixed every 10 minutes during loading, washed once, resuspended at up to 2×10^6/mL in the same buffer, and allowed to rest in the dark for 30 minutes at room temperature. Chemoattractant-stimulated change in Ca^2+-sensitive fluorescence of Fluo-4 was measured over real-time with a FACsScan flow cytometer and CellQuest software (BD Biosciences) at room temperature under constant stirring (500 rpm). Fluorescent data were acquired continuously up to 1024 seconds at 1-second intervals. The samples were analyzed for 45 seconds to establish basal state, removed from the nozzle to add the stimuli, and then returned to the nozzle. Mean channel fluorescence over time was analyzed with FlowJo (TreeStar, Ashland, Oreg., USA) software. […] 500 μl of these chemerin-loaded cells were added to mCMKLR1/L1.2 cells loaded with Fluo4-AM, and calcium mobilization was evaluated.
# [1] = system: mouse peritoneal mast cells; experiment: intracellular calcium mobilization, freshly isolated peritoneal mast cells; assay type: cell-based; details: 1000 nM chemerin, 100 nM ATP
# Procedure: as §1
# huCCRL2 = target: T3, huCCRL2 (Homo sapiens, UniProt O00421); experiment: in vitro transwell chemotaxis, huCCRL2-HA/L1.2 transfectants; assay type: cell-based; details: range of doses; CXCL12 and CCL19 act via endogenous CXCR4 and CCR7
# T3 construct: The coding regions of mCCRL2, huCCRL2, mCRTH2, and huCCR10 were amplified from genomic DNA; expressed in transfected cells
# T3 sequence (O00421 1-344): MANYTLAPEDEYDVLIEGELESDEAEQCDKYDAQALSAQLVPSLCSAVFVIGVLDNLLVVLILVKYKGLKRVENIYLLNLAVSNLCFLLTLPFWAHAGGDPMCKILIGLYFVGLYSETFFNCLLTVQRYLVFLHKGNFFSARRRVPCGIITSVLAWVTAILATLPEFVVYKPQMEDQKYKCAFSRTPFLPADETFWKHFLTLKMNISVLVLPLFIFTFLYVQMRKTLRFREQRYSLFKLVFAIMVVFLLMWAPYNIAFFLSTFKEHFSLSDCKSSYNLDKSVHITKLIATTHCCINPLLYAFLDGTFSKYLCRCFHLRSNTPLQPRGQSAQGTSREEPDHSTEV
# Procedure: For migration experiments using cell lines, 2.5×10^5 cells/100 μl chemotaxis media (RPMI+10% fetal calf serum) were added to the top wells of 5-um pore transwell inserts (Costar, Corning, N.Y., USA), and test samples in 600 μl media were added to the bottom wells. After incubating the transwell plates for 1.5 hours at 37° C., the bottom wells were harvested and flow cytometry was used to assess migration. For primary cell chemotaxis, 1×10^6 cells/100 μl were added to the top well, and, following a 2 hour incubation at 37° C., polystyrene beads (15.0 μm diameter, Polysciences, Warrington, Pa., USA) were added to each well to facilitate normalization of the cell count. The cells were then stained for c-kit, F4/80, and/or CD11b expression and analyzed by flow cytometry. A ratio was generated and percent input migration was calculated.
# CCRL2 = target: T4, CCRL2 (Mus musculus, UniProt O35457); experiment: radiolabeled chemerin binding to TNFα-treated bEND3 cells; details: cells treated 24 hours with 20 ng/ml TNFα
# T4 construct: TNFα-treated bEND3 cells acquire CCRL2 surface protein (but not CMKLR1 expression); endogenous in cells; host or cells: bEND3 mouse brain endothelioma cells treated 24 h with 20 ng/ml TNFα
# T4 sequence (O35457 1-360): T2 sequence (O35457 1-360)
# Description: FIG. 22. […] Panel A. Robust upregulation of CCRL2 RNA by microarray analysis (Affymetrix®). Panel B. TNFα-treated bEND3 cells acquire CCRL2 surface protein (but not CMKLR1 expression) as determined by mAb staining and flow cytometry. Panel C. […] CCRL2/L1.2 and empty vector pcDNA3/L1.2 transfectants are shown as controls. The mean+/−SD of triplicate wells is shown for an individual experiment. A representative data set of 2 performed with similar results is shown for parts B and C, and n=1 for part A.
# The cells were washed in PBS and stained with secondary anti-rat IgG PE or anti-mouse IgE PE (+goat IgG) for 30 min on ice, washed with PBS, stained with directly conjugated F4/80 and c-kit mAbs, and analyzed by flow cytometry. […] For competition binding assays, L1.2 cells transfected with huCCRL2, mCCRL2, or mCMKLR1 were plated into 96-well plates at 0.5×10^6 cells/well. […]. For saturation binding assays, mCCRL2/L1.2 cells were plated at 0.5×10^6 cells/well. […] Binding was terminated by washing the cells in saline buffer, and bound radioactivity was measured. Data were analyzed using Prism (GraphPad Software). Binding data (triplicate or quadruplicate wells) were fitted to one-site binding hyperbola for saturation assays, or to a one-site competition curve for competition assays. […] […].
substance,measurement,setting,value
"chemerin: protein ligand for signaling receptor CMKLR1; serum form human chemerin expressed in baculovirus-infected insect cells, His8-tag removed",chemerin binding,mCMKLR1,unable to detect
same,"agonism, intracellular calcium mobilization",mCCRL2,neither CCL2 nor chemerin functioned as agonists
same,intracellular calcium mobilization,[1],did not trigger
same,transwell migration,huCCRL2,neither human nor mouse CCRL2-HA/L1.2 transfectants migrated
same,chemerin binding to TNFα-treated bEND3 cells,CCRL2,bind
